From a protein production outcome set (Wang et al. 2014)

Experiment: label from the status in PepcDB records

Row | Sequence | protein production
1 | MDHLPMPKFGPLAGLRVVFSGIEIAGPFAGQMFAEWGAEVIWIENVAWADTIRVQPNYPQLSRRNLHALSLNIFKDEGREAFLKLMETTDIFIEASKGPAFARRGITDEVLWQHNPKLVIAHLSGFGQYGTEEYTNLPAYNTIAQAFSGYLIQNGDVDQPMPAFPYTADYFSGLTATTAALAALHKVRETGKGESIDIAMYEVMLRMGQYFMMDYFNGGEMCPRMSKGKDPYYAGCGLYKCADGYIVMELVGITQIEECFKDIGLAHLLGTPEIPEGTQLIHRIECPYGPLVEEKLDAWLATHTIAEVKERFAELNIACAKVLTVPELESNPQYVARESITQWQTMDGRTCKGPNIMPKFKNNPGQIWRGMPSHGMDTAAILKNIGYSENDIQELVSKGLAKVED | not failed
2 | QRSYERDFPHHDRICIVKTHGTRQSQEGDKPEELDFSQVSGGVAPAIQEEIPGVELATRTTLYGTSKMILEDNKTYETKTLLAEPAFLDMFGVELIAGVRDSALRDNMTCLISESLARKMGGDVLGKRLRPAESKSDRAITIGGVFEDLPHNSSIQADMLLPITWMPAESLNNWIGNDRYIAYVRLRPGVSPESLDEALLEMQKRHQDMEVFRKAGVELHYSLTPFNRLRLEDPTLVNMLRIQQ | not failed
3 | MLYIFLLPIIGLALAFIINKIFPRAQFRGYDVLPFFFIAACSLITLHINRPSFLPYGFLLYFILVIVVSLSDAIRNKNISLGKTIRKLWDYLAACTCFWYLGLLIMMFL | failed
4 | MSNESETDVDEETADEEEQAEGLQKGDVVKLAYTARTVDGGQLVDTTDEEVAEDDGIDTEQQEFGPRTIVLGENHIFPDVEQDIYGKEVGDEGDVTVAAADAFGEYDEEEVRTVSKDKIPEDDRYPGAHVDLEGEHGHVETIIGGRARVDFNHPLAGEDVEYDYEVLEEVTDREEKAQGIIQMMLDMELDVWFETDTVEEEQLVESEDEDEDEESEPEYETVEVEKETLYIEATPQLTMNQQWMMGKQQIAQQLTQLLDIDRIIVQEEIGGGGMGMPGMMGGMGGAGGADIEDALEDADVDAEEIVEEIEGAEE | failed
5 | MSLSHKAWQNAHAMYENDACAKALGIDIISMDEGFAVVTMTVTAQMLNGHQSCHGGQLFSLADTAFAYACNSQGLAAVASACTIDFLRPGFAGDTLTATAQVRHQGKQTGVYDIEIVNQQQKTVALFRGKSHRIGGTITGEAEGGSHHHHHH | not failed
6 | MKPSLIYMYNINKKQIIISLLSFIFVVAVAFVSLGNYIKQESGEVRQTIIVAFVILVYITFLAMIVIQAVSAFGKMTESTLFRLTSISGKKIVLAILLYAVIYLLIFELIGSIFLYGISMKIIKGTELYEVLFTQSVFNPLKHLFSTMLYVFNLSSILLVLLFSVASVKVFSLKKKKLKYPMVFFLFLLVTKLLGTIYGMLGGLAPAAPLIKKLVYIDESSGADVFLYPEKLMNLYSLSFSIGIFILLVYITGRIIDKKLEV | failed
7 | MIEINIQGSSSAGNNYLLADGNSSLMLEAGLKPKDIMKQGINFSNIQGLLVTHEHGDHSKYINDILLAGRFDVWASRGTLEGLGINRRSHILKANQQQKIGDWLVKPFATIHDDKKARAREPLGFLILSPSGKKIVFATDTNYLPKTFKDVTHWLVECNHDIKLVRQSKLPKSVQDRILRTHMSIDACKKFFQSTDLTKTEEIYLIHLSDKNSDPEKFKEEIEKITNKKIIIA | failed
8 | MISYIQTKIHHINFLHDSLFKNAFFLMLSSISTAGFGFIFWFLAAKFYSASDVGIATGIMSSMTLIVNLSRFGLDYSIIRFFPTHDKCKVFSTSTVISTLIALIFGLIFISGINSFSPELSFLRSPLYTLFYFISLTSSSVIFMAGIFFVAIREAEFQLYLNLIVGSRVLFVILFISLGAIGIFYAVGASFFIAFLISLVLILKSGTDLKLKIDRKFLTDSFNFSAGNFLTGLFMTVPNTLLPIMILNMHLVEQAAYYYIVFGIVSLLFMIPESISTSLFVEGSNGQSLKKTVIQSLVIIFLLLTPIALFFYLYGSLILGFIGQDYVAGGSGVFRLMIFASFFVVVNNVYFAIKRIQKDTKEITLLSGIIFILLIGLAFLLIPVLGIEGIGYAWIISYGTGALIILIQVFRKARFQNLLIKAM | failed
9 | MKGFAMLGINKLGWIEKERPVAGSYDAIVRPLAVSPCTSDIHTVFEGALGDRKNMILGHEAVGEVVEVGSEVKDFKPGDRVIVPCTTPDWRSLEVQAGFQQHSNGMLAGWKFSNFKDGVFGEYFHVNDADMNLAILPKDMPLENAVMITDMMTSGFHGAELADIQMGSSVVVIGIGAVGLMGIAGAKLRGAGRIIGVGSRPICVEAAKFYGATDILNYKNGHIVDQVMKLTNGEGVDRVIMAGGGSETLSQAVSMVKPGGIISNINYHGSGDALLIPRVEWGCGMAHKTIKGGLCPGGRLMKGFAMLGINKLGWIEKERPVAGSYDAIVRPLAVSPCTSDIHTVFEGALGDRKNMILGHEAVGEVVEVGSEVKDFKPGDRVIVPCTTPDWRSLEVQAGFQQHSNGMLAGWKFSNFKDGVFGEYFHVNDADMNLAILPKDMPLENAVMITDMMTSGFHGAELADIQMGSSVVVIGIGAVGLMGIAGAKLRGAGRIIGVGSRPICVEAAKFYGATDILNYKNGHIVDQVMKLTNGEGVDRVIMAGGGSETLSQAVSMVKPGGIISNINYHGSGDALLIPRVEWGCGMAHKTIKGGLCPGGRLRAEMLRDMVVYNRVDLSKLVTHVYHGFDHIEEALLLMKDKPKDLIKAVVIL | not failed
10 | MQMSMLTRLHYFNCVVETGSISKASRIFDVQPSSISRQLTALEKELGVLLLKRTSRNIGLTEAGQTYYKYSQKIVSDLDEARCAVNDLQQKPKGNLKVSMAVGFAECCILPMIPTFTKLYPEINLELEMTGRVVDLVEENVDVAIRTGRLRDSNLIALKLTSNNFLLCASPQYITEHGTPKSPFNLTDFECIRYEYAGWRDWYLMNDKPTKLTIKSGLTVRSINGQKQLILNHAGLALMPKWSVINELDNGTLVQVLEQNIFSPYESMSSTYAIYLKRELISPKVRVFIDFIKDHIDYNS | failed
11 | MDVFATGAGQVDPAKVLSPGLVYDATTEDYLKFIQGTGMDLGMEGLGTTQARDMNVPSFALGNLAGKIEVTRTLTALTPGTYRASVNVPGVNVKVTPSVLTFGAPGEKKTFKVQFENNNAALGKFAMGSLNWQGANKTVTSPIAVRPLEHHHHHH | failed
12 | MTEVYDLEITTNATDFPMEKKYPAGMSLNDLKKKLELVVGTTVDSMRIQLFDGDDQLKGELTDGAKSLKDLGVRDGYRIHAVDVTGGNEDFKDESMVEKYEMSDDTYGKRTDSVRAWKKKMQEEQGSAAPMENESDKLNEEAAKNIMVGNRCEVTVGAQMARRGEVAYVGATKFKEGVWVGVKYDEPVGKNDGSVAGVRYFDCDPKYGGFVRPVDVKVGDFPELSIDEI | not failed
13 | MPGEPGISTRPFSHCERGTTTRCGEGDAHVTVVISHLLVPATVSTVVTSSSFDRLQALLQRPAVASISPALREALARAWQELPPAQTDNVPWALLGDTLDALALLAADEATLIAALLFDLPALRGAVTDLPWQPAERRVAVEGLLDGLDAADQVWALHAGREAGRNSEGLRRLLLSIIHDLRVVPILLARQLSRMRVADRLSKEQRHALAQLTRDIHAPLANRLGIWQVKWELEDLAFRHLEPDTYRRIAREVDETRVARERYLEAVKRTLSAALAQQGLRADVSGRPKHIYSIWRKMQKKRLSFDQLYDIRAVRVMVDDVAACYAALGAVHSLWAPVPSEFDDYIARPKANDYRSLHTAVVGPEGRTIEIQIRTHEMHAQAELGVAAHWKYKEGGKGGEKAFDRKILWMRQLLEQVQEGEHGELAGALDAELIEDRVYALTPKGEVIDLPQGATPLDFAYHVHTMVGHRCRGARVNDRIVPLTYRLRSGDRVEIMTAKEADPRRDWLLASNGFLASGRSRDKVRAWFHKLDRARNVQAGKDLLDRELKRLGLQHADLSVATRKFHADTIDDLYIQVALGDTGPNQVSRALLEAERAASQPAVPAPPRPTARREGLGKSKFTVEGVGNLLVQLARCCQPVAGEPIAGYLTRGRGITVHRTDCAALARLAAAHPQRVLPVEWGKAGTGYEVDVQVRAVDRRWLLKDITNLIAQEDAHVLEINSDNVRDTGRAQLRLRLKVSDYDQLSGLLGKLDALPGVSEVRRLG | failed
14 | MGKEIEIERKTLVSKETFKRLISQLHIGEGDFKLQRNHYFETDDFQLKKQSSALRIREKEAIFTFTLKQPHPAGLLETNQTLSKQEAKLALESAHFPSGEVMDALRDLSIPISQLKHIGTLSTSRAEISYEQGILCLDHSSYLGIEDYEIEFEGTSEEHATVTFQEILKTFSISQVPTENKIQRFFSKKEKN | not failed
15 | MKLDWNGIDTVLLDMDGTLLDRHFDDHFWLEHVPKRYAAQNGIPLDEAKKLLYALFRSQERTLNWTDLDYWSERLGLDIPVLKQEIDHLIAVHPGVVEFLVFLRRHGKQAWLVTNAHGKTLSLKMRKTRLGPYFTGIISAHDLGLPKEDVRFWEKLQERVPYEPSRTLLGEDSETNLGTAEEYGIAHLIYVSRYSSTVTPTASDRYASIHYFTQLIPAAHTDET | failed
16 | MQSATDVAEYCKYDGFDGLKRAISLSDEEILNELDIAHLRGRGGAAYPLGKKWRHLYHAKGTTKYIVCNADEGEPGTFKDKVLLSEDPLSVIEGMIIAGYLFSAKAGYIYMRGEYRRIQKTFQEALDNARQAGFLGENILGIEGFNYDITIISGAGAYICGENSALLNSIEGKTGRPRVKPPHLADVGLYLQPTLVNNVESFASVPVILREGGQAFLEMGTADGGGTKLICLSGHIKNRGLYEVNLGTPLEEIIYGEQYGGGSATGRALKFIHFGGQSGPIGAVATLRDCLYSYEDLWAHDLSVGSGAIVVMDDSVNVVDYLVHVAAFFAHESCGKCTPCRLGTTRILELLSKFNRNEATASDLPRLEKMLTHVTRLSACGLGQSVANPMKSALALFPEEFETTAETEIYATSKGGWLEHHHHHH | not failed
17 | MKKTRRILLGLALIIGLSVGAGCRSTASKSKTANASQSATTRTVTDMAGTKVKIPTKVTRVADLWHANNQVVLLLGGQKKLVATTQMIKQSPWFKTIDPGISRVTAPFAGDDLQTEELLKAKPDVVIAADTAQVKQARKAKIPTINAMYQTFAGLRQSVNLTAQVLGGTAPKIAKAYQKTLTTNLNDVKNRLKDVTFKPKVLHFVNATNLNQVDGTGTIVNEWIKAAGGQNALKQKGNMISVTTETLAKSDPDVIIVGSATTAEARAALKKNAVLSKLTAVKKNRVYGNPQGTFPWDRYSAEEALQVLWAAKKLHPDQFQDLNMVAKTKAFYQQFYHYQLSTAQANRLLNGASSPK | failed
18 | MQTKKNEIWVGIFLLAALLAALFVCLKAANVTSIRTEPTYTLYATFDNIGGLKARSPVSIGGVVVGRVADITLDPKTYLPRVTLEIEQRYNHIPDTSSLSIRTSGLLGEQYLALNVGFEDPELGTAILKDGDTIQDTKSAMVLEDLIGQFLYGSKGDDNKNSGDAPAAAPGNNETTEPVGTTK | failed
19 | MNTNVYENTDSETITPLNKRRILPVFLLVGLYAASTAAVMSVLPFYIREMGGSPLIIGIIIATEAFSQFCAAPLIGHLSDRVGRKRILIVTLAIAAISLLLLANAQCILFILLARTLFGISAGNLSAAAAYIADCTHVRNRRQAIGILTGCIGLGGIVGAGVSGWLSRISLGAPIYAAFILVLGAALVAIWGLKDPSTTSRTTDKIASFSARAILKMPVLRVLIIVMLCHFFAYGMYSSQLPVFLSDTFIWNGLPFGPKALSYLLMADGVINIFVQLFLLGWVSQYFSERKLIILIFALLCTGFLTAGIATTIPVLIFAIVCISIADALAKPTYLAALSVHVSPARQGIVIGTAQALIAIADFISPVLGGFVLGYALYGVWIGIAISVAIIGLVTAMIYLSKSSPLIAKPETE | failed
